Here are results for 2 substances from article PMC11826994.

Assay [1] has as its target full-length histone H4 with L-isoaspartate at position 24 (H4isoD24), semisynthetic (UniProt P62805).
In assay [2] the target is full-length histone H4 with the canonical Asp at position 24 (H4D24), semisynthetic (UniProt P62805).

“methyltransferase Suv4-20h1 (from UniProt Q4FZB7 1-885) (enzyme)” returned a k (2,obs), rate of H4K20me1 to H4K20me2 methylation by Suv4-20h1 on 12-mer nucleosome arrays containing H4isoD24 (with Set8 and AdoMet; HRMS) in assay [1] of 0.002 min^–1. This substance yielded a k (2,obs), rate of H4K20me1 to H4K20me2 methylation by Suv4-20h1 on 12-mer nucleosome arrays containing H4D24 (with Set8 and AdoMet; HRMS) in assay [2] of 0.033 min^–1.

As to “methyltransferase Set8 (from UniProt Q9NQR1 1-393) (enzyme)”, in assay [1], the k (1,obs), rate of H4K20 monomethylation by Set8 on 12-mer nucleosome arrays containing H4isoD24 (with Suv4-20h1 and AdoMet; HRMS) is 0.0016 min^–1. Further, the k (1,obs), rate of H4K20 monomethylation by Set8 on 12-mer nucleosome arrays containing H4D24 (with Suv4-20h1 and AdoMet; HRMS) in assay [2] was 0.0059 min^–1.
